Test system: proteins that co-immunoprecipitated with DUX4-CTD constructs expressed in MB135 myoblasts
Test: LC-MS of proteins co-immunoprecipitated with DUX4-CTD (Table 1) and western validation
Format: binding, human
Design: key to 4. mL1dL2 + Dox + IFNG / 4. + IFNG mix / 4. longCTD + Dox + IFNG / 3. + IFNg + Dox longCTD / 3. + Dox longCTD / 3. + IFNG longCTD: peptide-spectrum matches (PSMs) per protein
Details: for 4. longCTD + Dox + IFNG: LC-MS counts of the listed protein co-immunoprecipitated with DUX4-CTD bait longCTD, experiment 4, Dox + IFNG; for 3. + Dox longCTD: experiment 3, Dox only; for 3. + IFNg + Dox longCTD: experiment 3, IFNg + Dox; for SUM of PSMS: sum over all samples
Procedure, shortened: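 FLAG-tagged DUX4-CTD expressed in doxycycline-induced MB135 myoblasts, some also IFNG-treated; nuclear lysates in pH 7.4 NP-40 IP buffer were pre-cleared, then anti-FLAG immunoprecipitated 3 h at 4 °C. For LC-MS, FLAG-peptide elution, in-gel trypsin digest, Orbitrap analysis; proteins with ≥2 PSMs in both experiments categorised and ranked by total PSMs.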

| Molecule | 4. mL1dL2 + Dox + IFNG (LC-MS value per protein co-immunoprecipitated with DUX4-CTD construct mL1dL2 in MB135 myoblasts, + Dox + IFNG, kind of count not given) | 4. longCTD + Dox + IFNG | 3. + Dox longCTD (bait longCTD) | 3. + IFNg + Dox longCTD (bait longCTD) | SUM of PSMS | 3. + IFNG longCTD (bait longCTD, experiment 3, IFNG only, no doxycycline (bait at background level)) |
| --- | --- | --- | --- | --- | --- | --- |
| CDK4 (protein) ATSRYEPVAEIGVGAYGTVYKARDPHSGHFVALKSVRVPNGGGGGGGLPISTVREVALLRRLEAFEHPNVVRLMDVCATSRTDREIKVTLVFEHVDQDLRTYLDKAPPPGLPAETIKDLMRQFLRGLDFLHANCIVHRDLKPENILVTSGGTVKLADFGLARIYSYQMALTPVVVTLWYRAPEVLLQSTYATPVDMWSVGCIFAEMFRRKPLFCGNSEADQLGKIFDLIGLPPEDDWPRDVSLPRGAFPPRGPRPVQSVVPEMEESGAQLLLEMLTFNPHKRISAFRALQHSYLHKDEGNPE | 3 | – | – | – | – | – |
| Q15393 (protein, UniProt Q15393 1-1217, looked up, full-length) MFLYNLTLQRATGISFAIHGNFSGTKQQEIVVSRGKILELLRPDPNTGKVHTLLTVEVFGVIRSLMAFRLTGGTKDYIVVGSDSGRIVILEYQPSKNMFEKIHQETFGKSGCRRIVPGQFLAVDPKGRAVMISAIEKQKLVYILNRDAAARLTISSPLEAHKANTLVYHVVGVDVGFENPMFACLEMDYEEADNDPTGEAAANTQQTLTFYELDLGLNHVVRKYSEPLEEHGNFLITVPGGSDGPSGVLICSENYITYKNFGDQPDIRCPIPRRRNDLDDPERGMIFVCSATHKTKSMFFFLAQTEQGDIFKITLETDEDMVTEIRLKYFDTVPVAAAMCVLKTGFLFVASEFGNHYLYQIAHLGDDDEEPEFSSAMPLEEGDTFFFQPRPLKNLVLVDELDSLSPILFCQIADLANEDTPQLYVACGRGPRSSLRVLRHGLEVSEMAVSELPGNPNAVWTVRRHIEDEFDAYIIVSFVNATLVLSIGETVEEVTDSGFLGTTPTLSCSLLGDDALVQVYPDGIRHIRADKRVNEWKTPGKKTIVKCAVNQRQVVIALTGGELVYFEMDPSGQLNEYTERKEMSADVVCMSLANVPPGEQRSRFLAVGLVDNTVRIISLDPSDCLQPLSMQALPAQPESLCIVEMGGTEKQDELGERGSIGFLYLNIGLQNGVLLRTVLDPVTGDLSDTRTRYLGSRPVKLFRVRMQGQEAVLAMSSRSWLSYSYQSRFHLTPLSYETLEFASGFASEQCPEGIVAISTNTLRILALEKLGAVFNQVAFPLQYTPRKFVIHPESNNLIIIETDHNAYTEATKAQRKQQMAEEMVEAAGEDERELAAEMAAAFLNENLPESIFGAPKAGNGQWASVIRVMNPIQGNTLDLVQLEQNEAAFSVAVCRFSNTGEDWYVLVGVAKDLILNPRSVAGGFVYTYKLVNNGEKLEFLHKTPVEEVPAAIAPFQGRVLIGVGKLLRVYDLGKKKLLRKCENKHIANYISGIQTIGHRVIVSDVQESFIWVRYKRNENQLIIFADDTYPRWVTTASLLDYDTVAGADKFGNICVVRLPPNTNDEVDEDPTGNKALWDRGLLNGASQKAEVIMNYHVGETVLSLQKTTLIPGGSESLVYTTLSGGIGILVPFTSHEDHDFFQHVEMHLRSEHPPLCGRDHLSFRSYYFPVKNVIDGDLCEQFNSMEPNKQKNVSEELDRTPPEVSKKLEDIRTRYAF | – | 1 | 1 | 3 | 15 | – |
| P55209 (protein, UniProt P55209 1-391, looked up, full-length) MADIDNKEQSELDQDLDDVEEVEEEETGEETKLKARQLTVQMMQNPQILAALQERLDGLVETPTGYIESLPRVVKRRVNALKNLQVKCAQIEAKFYEEVHDLERKYAVLYQPLFDKRFEIINAIYEPTEEECEWKPDEEDEISEELKEKAKIEDEKKDEEKEDPKGIPEFWLTVFKNVDLLSDMVQEHDEPILKHLKDIKVKFSDAGQPMSFVLEFHFEPNEYFTNEVLTKTYRMRSEPDDSDPFSFDGPEIMGCTGCQIDWKKGKNVTLKTIKKKQKHKGRGTVRTVTKTVSNDSFFNFFAPPEVPESGDLDDDAEAILAADFEIGHFLRERIIPRSVLYFTGEAIEDDDDDYDEEGEEADEEGEEEGDEENDPDYDPKKDQNPAECKQQ | – | 3 | – | 5 | 10 | – |
| P13489 (protein, UniProt P13489 1-461, looked up, full-length) MSLDIQSLDIQCEELSDARWAELLPLLQQCQVVRLDDCGLTEARCKDISSALRVNPALAELNLRSNELGDVGVHCVLQGLQTPSCKIQKLSLQNCCLTGAGCGVLSSTLRTLPTLQELHLSDNLLGDAGLQLLCEGLLDPQCRLEKLQLEYCSLSAASCEPLASVLRAKPDFKELTVSNNDINEAGVRVLCQGLKDSPCQLEALKLESCGVTSDNCRDLCGIVASKASLRELALGSNKLGDVGMAELCPGLLHPSSRLRTLWIWECGITAKGCGDLCRVLRAKESLKELSLAGNELGDEGARLLCETLLEPGCQLESLWVKSCSFTAACCSHFSSVLAQNRFLLELQISNNRLEDAGVRELCQGLGQPGSVLRVLWLADCDVSDSSCSSLAATLLANHSLRELDLSNNCLGDAGILQLVESVRQPGCLLEQLVLYDIYWSEEMEDRLQALEKDKPSLRVIS | – | 4 | – | – | 15 | 1 |
| Q13263 (protein, UniProt Q13263 1-835, looked up, full-length) MAASAAAASAAAASAASGSPGPGEGSAGGEKRSTAPSAAASASASAAASSPAGGGAEALELLEHCGVCRERLRPEREPRLLPCLHSACSACLGPAAPAAANSSGDGGAAGDGTVVDCPVCKQQCFSKDIVENYFMRDSGSKAATDAQDANQCCTSCEDNAPATSYCVECSEPLCETCVEAHQRVKYTKDHTVRSTGPAKSRDGERTVYCNVHKHEPLVLFCESCDTLTCRDCQLNAHKDHQYQFLEDAVRNQRKLLASLVKRLGDKHATLQKSTKEVRSSIRQVSDVQKRVQVDVKMAILQIMKELNKRGRVLVNDAQKVTEGQQERLERQHWTMTKIQKHQEHILRFASWALESDNNTALLLSKKLIYFQLHRALKMIVDPVEPHGEMKFQWDLNAWTKSAEAFGKIVAERPGTNSTGPAPMAPPRAPGPLSKQGSGSSQPMEVQEGYGFGSGDDPYSSAEPHVSGVKRSRSGEGEVSGLMRKVPRVSLERLDLDLTADSQPPVFKVFPGSTTEDYNLIVIERGAAAAATGQPGTAPAGTPGAPPLAGMAIVKEEETEAAIGAPPTATEGPETKPVLMALAEGPGAEGPRLASPSGSTSSGLEVVAPEGTSAPGGGPGTLDDSATICRVCQKPGDLVMCNQCEFCFHLDCHLPALQDVPGEEWSCSLCHVLPDLKEEDGSLSLDGADSTGVVAKLSPANQRKCERVLLALFCHEPCRPLHQLATDSTFSLDQPGGTLDLTLIRARLQEKLSPPYSSPQEFAQDVGRMFKQFNKLTEDKADVQSIIGLQRFFETRMNEAFGDTKFSAVLVEPPPMSLPGAGLSSQELSGGPGDGP | – | 2 | – | 1 | 12 | – |
| P11802 (protein, UniProt P11802 1-303, looked up, full-length) MATSRYEPVAEIGVGAYGTVYKARDPHSGHFVALKSVRVPNGGGGGGGLPISTVREVALLRRLEAFEHPNVVRLMDVCATSRTDREIKVTLVFEHVDQDLRTYLDKAPPPGLPAETIKDLMRQFLRGLDFLHANCIVHRDLKPENILVTSGGTVKLADFGLARIYSYQMALTPVVVTLWYRAPEVLLQSTYATPVDMWSVGCIFAEMFRRKPLFCGNSEADQLGKIFDLIGLPPEDDWPRDVSLPRGAFPPRGPRPVQSVVPEMEESGAQLLLEMLTFNPHKRISAFRALQHSYLHKDEGNPE | – | 11 | 1 | 1 | 16 | – |
| Q63ZY3 (protein, UniProt Q63ZY3 1-851, looked up, full-length) MAQVLHVPAPFPGTPGPASPPAFPAKDPDPPYSVETPYGYRLDLDFLKYVDDIEKGHTLRRVAVQRRPRLSSLPRGPGSWWTSTESLCSNASGDSRHSAYSYCGRGFYPQYGALETRGGFNPRVERTLLDARRRLEDQAATPTGLGSLTPSAAGSTASLVGVGLPPPTPRSSGLSTPVPPSAGHLAHVREQMAGALRKLRQLEEQVKLIPVLQVKLSVLQEEKRQLTVQLKSQKFLGHPTAGRGRSELCLDLPDPPEDPVALETRSVGTWVRERDLGMPDGEAALAAKVAVLETQLKKALQELQAAQARQADPQPQAWPPPDSPVRVDTVRVVEGPREVEVVASTAAGAPAQRAQSLEPYGTGLRALAMPGRPESPPVFRSQEVVETMCPVPAAATSNVHMVKKISITERSCDGAAGLPEVPAESSSSPPGSEVASLTQPEKSTGRVPTQEPTHREPTRQAASQESEEAGGTGGPPAGVRSIMKRKEEVADPTAHRRSLQFVGVNGGYESSSEDSSTAENISDNDSTENEAPEPRERVPSVAEAPQLRPAGTAAAKTSRQECQLSRESQHIPTAEGASGSNTEEEIRMELSPDLISACLALEKYLDNPNALTERELKVAYTTVLQEWLRLACRSDAHPELVRRHLVTFRAMSARLLDYVVNIADSNGNTALHYSVSHANFPVVQQLLDSGVCKVDKQNRAGYSPIMLTALATLKTQDDIETVLQLFRLGNINAKASQAGQTALMLAVSHGRVDVVKALLACEADVNVQDDDGSTALMCACEHGHKEIAGLLLAVPSCDISLTDRDGSTALMVALDAGQSEIASMLYSRMNIKCSFAPMSDDESPTSSSAEE | – | 4 | 3 | 3 | 11 | – |
| O14929 (protein, UniProt O14929 1-419, looked up, full-length) MAGFGAMEKFLVEYKSAVEKKLAEYKCNTNTAIELKLVRFPEDLENDIRTFFPEYTHQLFGDDETAFGYKGLKILLYYIAGSLSTMFRVEYASKVDENFDCVEADDVEGKIRQIIPPGFCTNTNDFLSLLEKEVDFKPFGTLLHTYSVLSPTGGENFTFQIYKADMTCRGFREYHERLQTFLMWFIETASFIDVDDERWHYFLVFEKYNKDGATLFATVGYMTVYNYYVYPDKTRPRVSQMLILTPFQGQGHGAQLLETVHRYYTEFPTVLDITAEDPSKSYVKLRDFVLVKLCQDLPCFSREKLMQGFNEDMVIEAQQKFKINKQHARRVYEILRLLVTDMSDAEQYRSYRLDIKRRLISPYKKKQRDLAKMRKCLRPEELTNQMNQIEISMQHEQLEESFQELVEDYRRVIERLAQE | – | 9 | – | 3 | 23 | – |
